Bounds are passed on as bounds.

The target in the assay is GRASP65-homologue protein 1 (Grh1) (S. cerevisiae) (UniProt Q04410). Put plainly: circular dichroism + electron paramagnetic resonance. On the technique in general: CD spectra are sensitive to the conformation of chiral molecules.
UniProt Q04410, sequence (Q04410 whole entry): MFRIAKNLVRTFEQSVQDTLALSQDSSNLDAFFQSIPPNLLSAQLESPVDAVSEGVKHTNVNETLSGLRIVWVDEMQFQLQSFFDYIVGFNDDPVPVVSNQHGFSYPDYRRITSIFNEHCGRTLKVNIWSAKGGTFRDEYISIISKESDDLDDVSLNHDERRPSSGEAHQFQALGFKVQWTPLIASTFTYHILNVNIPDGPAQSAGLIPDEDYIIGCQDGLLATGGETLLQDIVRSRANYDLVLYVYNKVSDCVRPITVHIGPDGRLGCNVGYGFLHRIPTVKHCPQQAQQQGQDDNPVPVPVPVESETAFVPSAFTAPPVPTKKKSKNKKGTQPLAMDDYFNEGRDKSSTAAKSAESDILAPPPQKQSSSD

One may read the Kd as the equilibrium constant for the complex coming apart. As for “Acyl-CoA Binding Protein 1 (ACBP) (from UniProt P31787 1-87) (natural protein)”, the Kd was more than 1000 µM.

The values are drawn from paper doi:10.1101/2023.12.19.572348.
